Laboratory results: patent US20030036169A1 (University of Texas, published 2003)
Residue numbers refer to the chain shown, from its start. No end group written: not given here.

T1: Mint 2 (rat, UniProt O35431 1-750)
T1 construct: Endogenous rat brain protein or full-length rat Mint 2 from a pCMV5 vector; also called Mints/X11 2; pCMV-Mint 2
T1 sequence: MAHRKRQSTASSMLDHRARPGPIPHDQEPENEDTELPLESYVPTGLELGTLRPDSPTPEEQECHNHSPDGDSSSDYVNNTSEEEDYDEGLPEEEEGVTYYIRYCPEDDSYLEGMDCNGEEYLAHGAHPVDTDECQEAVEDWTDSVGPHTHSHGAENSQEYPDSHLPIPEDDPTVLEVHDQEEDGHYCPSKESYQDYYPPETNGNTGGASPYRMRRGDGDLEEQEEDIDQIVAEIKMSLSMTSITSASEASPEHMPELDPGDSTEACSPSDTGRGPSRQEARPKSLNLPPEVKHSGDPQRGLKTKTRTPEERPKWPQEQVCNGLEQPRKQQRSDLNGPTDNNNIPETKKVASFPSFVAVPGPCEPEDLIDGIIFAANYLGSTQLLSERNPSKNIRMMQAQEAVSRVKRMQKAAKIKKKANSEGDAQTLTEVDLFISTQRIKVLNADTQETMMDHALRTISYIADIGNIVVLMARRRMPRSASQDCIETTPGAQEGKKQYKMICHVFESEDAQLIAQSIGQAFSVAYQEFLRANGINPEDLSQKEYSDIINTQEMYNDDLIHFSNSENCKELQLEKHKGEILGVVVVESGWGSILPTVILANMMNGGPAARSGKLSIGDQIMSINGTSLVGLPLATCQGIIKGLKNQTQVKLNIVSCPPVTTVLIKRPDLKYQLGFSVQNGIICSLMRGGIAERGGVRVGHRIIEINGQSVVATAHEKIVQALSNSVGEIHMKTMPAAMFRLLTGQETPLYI

T2: Mint 1 (rat, UniProt O35430 1-839)
T2 construct: Full-length rat Mint 1 from pCMV5 vectors in transfected COS/HEK293 cells; also called Mints/X11 1; wild-type Mint 1
T2 sequence: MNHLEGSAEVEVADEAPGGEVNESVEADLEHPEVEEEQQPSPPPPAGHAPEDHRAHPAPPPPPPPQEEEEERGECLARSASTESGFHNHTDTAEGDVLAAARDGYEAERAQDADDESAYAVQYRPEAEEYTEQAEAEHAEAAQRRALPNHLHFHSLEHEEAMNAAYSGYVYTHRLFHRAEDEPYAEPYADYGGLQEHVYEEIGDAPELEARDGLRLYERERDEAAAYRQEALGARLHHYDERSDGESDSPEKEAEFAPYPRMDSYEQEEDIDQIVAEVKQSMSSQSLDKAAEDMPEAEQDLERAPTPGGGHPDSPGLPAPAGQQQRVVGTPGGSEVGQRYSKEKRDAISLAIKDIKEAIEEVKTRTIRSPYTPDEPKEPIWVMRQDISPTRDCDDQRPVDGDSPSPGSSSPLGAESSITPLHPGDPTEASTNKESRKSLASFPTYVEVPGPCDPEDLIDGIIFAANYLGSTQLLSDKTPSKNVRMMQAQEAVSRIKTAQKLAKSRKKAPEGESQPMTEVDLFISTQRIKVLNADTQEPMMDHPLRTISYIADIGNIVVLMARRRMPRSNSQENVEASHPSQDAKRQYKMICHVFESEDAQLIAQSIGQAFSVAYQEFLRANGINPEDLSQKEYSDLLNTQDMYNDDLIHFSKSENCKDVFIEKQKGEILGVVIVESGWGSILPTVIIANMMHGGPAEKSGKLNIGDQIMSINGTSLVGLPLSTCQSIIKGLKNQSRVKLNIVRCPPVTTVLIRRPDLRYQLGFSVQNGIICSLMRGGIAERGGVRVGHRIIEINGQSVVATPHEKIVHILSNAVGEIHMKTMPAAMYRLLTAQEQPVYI

T3: Mint 3 (rat, UniProt O70248 1-569)
T3 construct: Endogenous rat brain protein or full-length rat Mint 3 from a pCMV5 vector; also called Mints/X11 3; pCMV-Mint 3
T3 sequence (looked up): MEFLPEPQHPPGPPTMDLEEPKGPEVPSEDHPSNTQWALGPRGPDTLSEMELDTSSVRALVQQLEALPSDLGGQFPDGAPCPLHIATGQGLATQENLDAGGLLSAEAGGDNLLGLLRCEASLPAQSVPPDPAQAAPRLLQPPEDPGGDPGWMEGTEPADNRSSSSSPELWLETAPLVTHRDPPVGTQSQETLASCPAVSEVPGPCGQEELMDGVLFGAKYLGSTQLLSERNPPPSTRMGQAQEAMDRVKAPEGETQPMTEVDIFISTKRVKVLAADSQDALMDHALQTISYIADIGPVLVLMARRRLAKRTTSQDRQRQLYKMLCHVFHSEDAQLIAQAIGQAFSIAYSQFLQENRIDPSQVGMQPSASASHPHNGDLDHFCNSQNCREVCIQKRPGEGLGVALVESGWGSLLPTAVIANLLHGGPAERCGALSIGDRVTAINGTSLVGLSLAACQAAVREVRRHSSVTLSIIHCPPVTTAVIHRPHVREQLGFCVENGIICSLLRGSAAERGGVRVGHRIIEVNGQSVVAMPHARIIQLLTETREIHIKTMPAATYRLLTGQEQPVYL

B1: immobilized cytoplasmic peptide derived from APP (CGYENPTYKFFEQMQN) (peptide)
peptide: CGYENPTYKFFEQMQN
modifications: not fully specified (residue 1); also: immobilized on SulfoLink beads via N-terminal Cys
notes: Coupled through the added N-terminal Cys to SulfoLink beads; also called immobilized cytoplasmic tail of APP; immobilized APP tail
B2: peptide derived from the gp41 glycoprotein (CWFSITNWLWYI) (peptide)
peptide: CWFSITNWLWYI
modifications: also: immobilized on SulfoLink beads
notes: Negative control peptide immobilized on SulfoLink beads; also called gp41 control peptide; Control
B3: Mint 1 ΔPDZ (other)
chain: MNHLEGSAEVEVADEAPGGEVNESVEADLEHPEVEEEQQPSPPPPAGHAPEDHRAHPAPPPPPPPQEEEEERGECLARSASTESGFHNHTDTAEGDVLAAARDGYEAERAQDADDESAYAVQYRPEAEEYTEQAEAEHAEAAQRRALPNHLHFHSLEHEEAMNAAYSGYVYTHRLFHRAEDEPYAEPYADYGGLQEHVYEEIGDAPELEARDGLRLYERERDEAAAYRQEALGARLHHYDERSDGESDSPEKEAEFAPYPRMDSYEQEEDIDQIVAEVKQSMSSQSLDKAAEDMPEAEQDLERAPTPGGGHPDSPGLPAPAGQQQRVVGTPGGSEVGQRYSKEKRDAISLAIKDIKEAIEEVKTRTIRSPYTPDEPKEPIWVMRQDISPTRDCDDQRPVDGDSPSPGSSSPLGAESSITPLHPGDPTEASTNKESRKSLASFPTYVEVPGPCDPEDLIDGIIFAANYLGSTQLLSDKTPSKNVRMMQAQEAVSRIKTAQKLAKSRKKAPEGESQPMTEVDLFISTQRIKVLNADTQEPMMDHPLRTISYIADIGNIVVLMARRRMPRSNSQENVEASHPSQDAKRQYKMICHVFESEDAQLIAQSIGQAFSVAYQEFLRANGINPEDLSQKEYSDLLNTQDMYNDDLIHFSKSENCKDV
B4: Mint 1 PDZ1* (other)
chain: T2 sequence with G670A, V671A
notes: Produced in transfected COS or HEK293 cells; also called pCMV-Mint 1-PDZ1*
B5: peptide corresponding to the extreme C-terminus of Drosophila Presenilin (CMEDLSAKQVFI) (peptide)
peptide: CMEDLSAKQVFI
modifications: also: immobilized on SulfoLink beads
notes: Has an added N-terminal Cys and is immobilized on SulfoLink beads; also called Drosophila presenilin C-terminal peptide
B6: peptide corresponding to the extreme C-terminus of human Presenilin 1 (CMDQLAFHQFYI) (peptide)
peptide: CMDQLAFHQFYI
modifications: also: immobilized on SulfoLink beads
notes: Has an added N-terminal Cys and is immobilized on SulfoLink beads; also called Pres1; presenilin 1 column
B7: peptide corresponding to the extreme C-terminus of human HPV2 (poliovirus receptor-related protein 2; CGSLISRRAVYV) (peptide)
peptide: CGSLISRRAVYV
modifications: also: immobilized on SulfoLink beads
notes: Negative control peptide immobilized on SulfoLink beads; also called HPV2 control peptide
B8: peptide corresponding to the extreme C-terminus of human Presenilin 2 (CMDTLASHQLYI) (peptide)
peptide: CMDTLASHQLYI
modifications: also: immobilized on SulfoLink beads
notes: Has an added N-terminal Cys and is immobilized on SulfoLink beads; also called presenilin 2 C-terminal peptide

Columns and labels:
Mint 2 [1] = molecular target: T1, Mint 2; experiment: affinity chromatography on the immobilized APP tail peptide, immunoblot
Mint 1 [2] = molecular target: T2, Mint 1; experiment: as above
Mint 3 [3] = molecular target: T3, Mint 3; experiment: as above
Mint 2 [4] = molecular target: T1, Mint 2; experiment: affinity chromatography of rat forebrain membrane proteins on the gp41 control peptide
Mint 3 [5] = molecular target: T3, Mint 3; experiment: as above
Mint 1 [6] = molecular target: T2, Mint 1; experiment: affinity chromatography of rat brain extract on the immobilized gp41 control peptide, immunoblot
[7] = molecular target: APP-Gal4/VP16 fusion protein (human; yeast, UniProt P05067 18-651; P04386 1-147; P06492 413-490; P05067 652-695); experiment: cell-based or functional assay
[8] = molecular target: B6; experiment: affinity chromatography of COS cell-expressed Mint 1 proteins on the immobilized presenilin 1 C-terminal peptide
Mint 1 [9] = molecular target: T2, Mint 1; experiment: affinity chromatography on the immobilized Drosophila presenilin C-terminal peptide
Mint 1 [10] = molecular target: T2, Mint 1; experiment: affinity chromatography on the immobilized presenilin 1 C-terminal peptide, immunoblot
Mint 3 [11] = molecular target: T3, Mint 3; experiment: as above
synaptophysin 1 (Syp) = molecular target: T4, synaptophysin 1 (Syp) (rat, UniProt P07825 1-307); experiment: affinity chromatography of rat forebrain membrane proteins on the presenilin 1 C-terminal peptide
T4 construct: Negative control protein

PSD95 = PSD95 (rat, UniProt P31016 1-724); experiment: affinity chromatography of rat forebrain membrane proteins on the immobilized presenilin 1 C-terminal peptide, immunoblot
Mint 2 [12] = molecular target: T1, Mint 2; experiment: as above
Mint 1 [13] = molecular target: T2, Mint 1; experiment: affinity chromatography on the immobilized HPV2 control peptide
Mint 1 [14] = molecular target: T2, Mint 1; experiment: affinity chromatography on the immobilized presenilin 2 C-terminal peptide

PSD95, sequence (P31016 whole entry): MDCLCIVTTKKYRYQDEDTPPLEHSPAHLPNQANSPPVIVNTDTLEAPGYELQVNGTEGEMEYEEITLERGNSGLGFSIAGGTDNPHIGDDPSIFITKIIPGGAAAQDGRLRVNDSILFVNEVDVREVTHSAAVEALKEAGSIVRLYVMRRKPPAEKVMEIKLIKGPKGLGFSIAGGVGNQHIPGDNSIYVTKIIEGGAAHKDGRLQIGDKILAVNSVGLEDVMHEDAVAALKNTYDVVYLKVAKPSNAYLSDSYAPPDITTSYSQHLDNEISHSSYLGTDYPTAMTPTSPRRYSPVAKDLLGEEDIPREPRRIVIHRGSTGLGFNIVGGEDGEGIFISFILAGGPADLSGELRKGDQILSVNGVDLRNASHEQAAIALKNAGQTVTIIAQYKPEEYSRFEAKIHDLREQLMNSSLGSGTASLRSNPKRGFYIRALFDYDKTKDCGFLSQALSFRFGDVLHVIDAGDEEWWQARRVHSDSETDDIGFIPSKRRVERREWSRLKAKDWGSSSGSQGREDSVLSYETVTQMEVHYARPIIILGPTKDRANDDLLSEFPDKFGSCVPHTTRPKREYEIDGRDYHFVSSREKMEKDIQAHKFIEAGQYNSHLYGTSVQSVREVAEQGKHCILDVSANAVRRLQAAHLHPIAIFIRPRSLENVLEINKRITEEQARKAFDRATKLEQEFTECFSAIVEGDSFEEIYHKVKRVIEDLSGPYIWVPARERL
T4 sequence (P07825 whole entry): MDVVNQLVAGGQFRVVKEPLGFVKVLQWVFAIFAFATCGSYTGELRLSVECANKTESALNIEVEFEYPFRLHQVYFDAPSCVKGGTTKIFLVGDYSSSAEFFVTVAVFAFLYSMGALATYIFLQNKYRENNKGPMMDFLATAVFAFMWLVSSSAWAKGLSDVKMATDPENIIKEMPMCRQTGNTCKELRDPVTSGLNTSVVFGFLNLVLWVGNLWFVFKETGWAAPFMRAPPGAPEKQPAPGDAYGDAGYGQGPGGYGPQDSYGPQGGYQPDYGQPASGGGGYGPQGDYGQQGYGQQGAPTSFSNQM

## B1
Mint 2 [1]
  binding result: binds
Mint 1 [2]
  binding result: binds
Mint 3 [3]
  binding result: binds

## B2
Mint 2 [4]
  binding result: no binding
Mint 3 [5]
  binding result: no binding
Mint 1 [6]
  binding result: no binding

## B3
[7]
  potency of inhibition of transactivation relative to wild-type Mint 1 (normalized to expressed protein): ~10 times more potent than wild-type Mint 1

## B4
[8]
  fold decrease in binding against wild-type Mint 1: ~2 fold decrease

## B5
Mint 1 [9]
  binding result: binds

## B6
Mint 1 [10]
  binding result: binds
Mint 3 [11]
  binding result: binds
Synaptophysin 1 (Syp)
  binding result: no binding
PSD95
  binding result: binds
Mint 2 [12]
  binding result: binds

## B7
Mint 1 [13]
  binding result: no binding

## B8
Mint 1 [14]
  binding result: binds
